# Biological target: RHAU140-RNase HI fusion (Homo sapiens (RHAU) / Bacillus …, UniProt Q9H2U1 53-192+=SGGGSGGGSGGGSGGG+Q9KEI9:59-196, internal_change)
# Assay: EMSA; 10 uM DNA, 50 uM protein; 100 mM K+; Native 10% PAGE in 1X TBE, 20 mM potassium phosphate, 100 mM KCl, pH 7.0; UV shadowing; temperature not stated
# Details: protein: recombinant
# Sequence of RHAU140-RNase HI fusion (Q9H2U1 other isoform, or with tags, fused parts or gaps): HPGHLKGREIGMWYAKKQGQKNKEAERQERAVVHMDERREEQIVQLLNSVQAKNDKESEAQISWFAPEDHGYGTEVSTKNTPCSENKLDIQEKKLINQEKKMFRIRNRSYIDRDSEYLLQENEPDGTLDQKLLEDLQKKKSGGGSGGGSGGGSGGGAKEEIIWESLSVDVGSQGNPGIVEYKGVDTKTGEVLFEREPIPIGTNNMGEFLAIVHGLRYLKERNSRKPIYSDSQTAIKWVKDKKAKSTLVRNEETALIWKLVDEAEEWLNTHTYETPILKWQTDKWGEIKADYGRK
Binder,binding result (single strand),binding result (parallel G4 with 3' single-stranded tail)
TTGACTAAGTGCCTTAGTTCAACGACGACGGCATCATC (ssDNA) [B0],no binding,–
TTGGGTGGGTGGGTGGGTTCAACGACGACGGCATCATC (structured_DNA) [B1],–,binds
